# In patent US20100215655A1 (CHENGDU KANGHONG BIOTECHNOLOGIES, published 2010):
# How the values were obtained:
# [1] = molecular target: T1, recombinant VEGF (vascular endothelial cell growth factor) (UniProt P15692-4 27-191, limits assumed); assay: cell-based or functional assay
# [2] = molecular target: T1, recombinant VEGF (vascular endothelial …); assay: ELISA, VEGF coated on plate, anti-human Ig-HRP detection
# Procedure: Affinities of the chimeric proteins to VEGF were determined by the VEGF binding assay in the present invention. Firstly, recombinant VEGF proteins (Chemicom) were coated in a 96-well ELISA plate, and non-specific protein binding sites of the plate were then blocked using 5% milk solution. Secondly, different concentrations of various chimeric proteins were added into each well, and incubated for 2 hours at 37° C. After washing, rabbit anti-human Ig-HRP (Sigma) was added into each well, and finally colorimetric enzyme substrates were added to the plate. The absorption OD readings were recorded with the use of an ELISA plate reader. A higher OD value indicated a stronger binding affinity of the chimeric proteins to VEGF.
# T1 sequence (P15692 other isoform, or with tags, fused parts or gaps limits assumed): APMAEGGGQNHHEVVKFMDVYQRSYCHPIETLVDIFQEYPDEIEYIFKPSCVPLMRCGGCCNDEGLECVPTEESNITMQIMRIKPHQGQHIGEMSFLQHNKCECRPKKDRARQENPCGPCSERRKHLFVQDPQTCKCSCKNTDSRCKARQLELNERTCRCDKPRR
binder,measurement,setting,value
"FP6′ (FLTd2-KDRd3-FLTd4,5-Fc) (Fc fusion, human, not shown: a dimerising Fc or GST, domain: 5th Ig-like domain of FLT-1; Expressed in 293 cells; also called PF6′) PFVEMYSEIPEIIHMTEGRELVIPCRVTSPNITVTLKKFPLDTLIPDGKRIIWDSRKGFIISNATYKEIGLLTCEATVNGHLYKTNYLTHRQTVVLSPSHGIELSVGEKLVLNCTARTELNVGIDFNWEYPSSKHQHKKLVNRDLKTQSGSEMKKFLSTLTIDGVTRSDQGLYTCAASSGLMTKKNSTFVRVHEKFITVKHRKQQVLETVAGKRSYRLSMKVKAFPSPEVVWLKDGLPATEKSARYLTRGYSLIIKDVTEEDAGNYTILLSIKQSNVFKNLTATLIVNVKPQIYEKAVSSFPDPALYPLGSRQILTCTAYGIPQPTIKWFWHPCNHNHSEARCDFCSNNEESFILDADSNMGNRIESITQRMAIIEGKNKMASTLVVADSRISGIYICIASNKVGTVGRNISFYIT",IC50 of inhibition of VEGF-induced HUVEC cell growth,[1],5 to 8 ng/mL
same,concentration at which binding was detectable,[2],1 µg/mL
"FP1′ (FLTd2-KDRd3-Fc), chimeric protein of the prior art (Fc fusion, not shown: a dimerising Fc or GST) PFVEMYSEIPEIIHMTEGRELVIPCRVTSPNITVTLKKFPLDTLIPDGKRIIWDSRKGFIISNATYKEIGLLTCEATVNGHLYKTNYLTHRQTVVLSPSHGIELSVGEKLVLNCTARTELNVGIDFNWEYPSSKHQHKKLVNRDLKTQSGSEMKKFLSTLTIDGVTRSDQGLYTCAASSGLMTKKNSTFVRVHEK",IC50 of inhibition of VEGF-induced HUVEC cell growth,[1],~12 ng/mL
"FP2′ (KDRd1-FLTd2-KDRd3-Fc) (Fc fusion, not shown: a dimerising Fc or GST, Expressed in 293 cells) PRLSIQKDILTIKANTTLQITCRGQRDLDWLWPNNQSGSEQRVEVTECSDGLFCKTLTIPKVIGNDTGAYKCFYRETDLASVIYVYPFVEMYSEIPEIIHMTEGRELVIPCRVTSPNITVTLKKFPLDTLIPDGKRIIWDSRKGFIISNATYKEIGLLTCEATVNGHLYKTNYLTHRQTVVLSPSHGIELSVGEKLVLNCTARTELNVGIDFNWEYPSSKHQHKKLVNRDLKTQSGSEMKKFLSTLTIDGVTRSDQGLYTCAASSGLMTKKNSTFVRVHEK",IC50 of inhibition of VEGF-induced HUVEC cell growth,[1],5 to 8 ng/mL
same,concentration at which binding was detectable,[2],1 µg/mL
"FP4′ (FLTd2-KDRd3-FLTd4-Fc) (Fc fusion, not shown: a dimerising Fc or GST, Expressed in 293 cells) PFVEMYSEIPEIIHMTEGRELVIPCRVTSPNITVTLKKFPLDTLIPDGKRIIWDSRKGFIISNATYKEIGLLTCEATVNGHLYKTNYLTHRQTVVLSPSHGIELSVGEKLVLNCTARTELNVGIDFNWEYPSSKHQHKKLVNRDLKTQSGSEMKKFLSTLTIDGVTRSDQGLYTCAASSGLMTKKNSTFVRVHEKFITVKHRKQQVLETVAGKRSYRLSMKVKAFPSPEVVWLKDGLPATEKSARYLTRGYSLIIKDVTEEDAGNYTILLSIKQSNVFKNLTATLIVNVKP",IC50 of inhibition of VEGF-induced HUVEC cell growth,[1],5 to 8 ng/mL
same,concentration at which binding was detectable,[2],1 µg/mL
"FP5′ (FLTd2-KDRd3,4,5-Fc) (Fc fusion, human, not shown: a dimerising Fc or GST, domain: 5th Ig-like domain of KDR; Expressed in 293 cells) PFVEMYSEIPEIIHMTEGRELVIPCRVTSPNITVTLKKFPLDTLIPDGKRIIWDSRKGFIISNATYKEIGLLTCEATVNGHLYKTNYLTHRQTVVLSPSHGIELSVGEKLVLNCTARTELNVGIDFNWEYPSSKHQHKKLVNRDLKTQSGSEMKKFLSTLTIDGVTRSDQGLYTCAASSGLMTKKNSTFVRVHEKFVAFGSGMESLVEATVGERVRIPAKYLGYPPPEIKWYKNGIPLESNHTIKAGHVLTIMEVSERDTGNYTVILTNPIKSEKQSHVVSLVVYVPPQIGEKSLISPVDSYQYGTTQTLTCTVYAIPPPHHIHWYWQLEEECANEPSQAVSVTNPYPCEEWRSVEDFQGGNKIEVNKNQFALIEGKNKTVSTLVIQAANVSALYKCEAVNKVGRGERVISFHVT",IC50 of inhibition of VEGF-induced HUVEC cell growth,[1],5 to 8 ng/mL
same,concentration at which binding was detectable,[2],1 µg/mL
